Experimental findings from patent US20090042248 are described below.

For data set [1], the target named is T1, Human C2, P06681.
T1 chain: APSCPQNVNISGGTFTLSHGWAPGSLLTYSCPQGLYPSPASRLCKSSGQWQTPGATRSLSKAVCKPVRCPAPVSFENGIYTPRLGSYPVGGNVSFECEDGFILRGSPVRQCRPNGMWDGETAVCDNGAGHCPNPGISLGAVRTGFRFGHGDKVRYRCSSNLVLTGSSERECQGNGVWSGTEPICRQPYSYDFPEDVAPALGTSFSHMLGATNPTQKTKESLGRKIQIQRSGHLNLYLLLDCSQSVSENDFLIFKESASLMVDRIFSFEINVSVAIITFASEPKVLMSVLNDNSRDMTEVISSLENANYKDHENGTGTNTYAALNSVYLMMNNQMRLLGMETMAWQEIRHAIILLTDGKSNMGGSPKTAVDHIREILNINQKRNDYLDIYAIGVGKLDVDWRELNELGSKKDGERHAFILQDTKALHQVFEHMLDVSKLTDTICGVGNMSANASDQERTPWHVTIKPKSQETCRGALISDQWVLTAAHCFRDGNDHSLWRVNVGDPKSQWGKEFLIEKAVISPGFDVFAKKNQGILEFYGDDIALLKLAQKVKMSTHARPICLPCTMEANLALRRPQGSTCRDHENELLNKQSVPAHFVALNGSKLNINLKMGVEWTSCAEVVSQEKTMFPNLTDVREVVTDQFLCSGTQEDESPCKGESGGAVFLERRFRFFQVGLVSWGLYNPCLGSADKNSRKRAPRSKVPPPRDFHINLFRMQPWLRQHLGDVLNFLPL

Data set [2] concerns the target Human C4, P0C0L4.
Data set [3] concerns the target T2, alpha-2-macroglobulin, P01023.
T2 chain: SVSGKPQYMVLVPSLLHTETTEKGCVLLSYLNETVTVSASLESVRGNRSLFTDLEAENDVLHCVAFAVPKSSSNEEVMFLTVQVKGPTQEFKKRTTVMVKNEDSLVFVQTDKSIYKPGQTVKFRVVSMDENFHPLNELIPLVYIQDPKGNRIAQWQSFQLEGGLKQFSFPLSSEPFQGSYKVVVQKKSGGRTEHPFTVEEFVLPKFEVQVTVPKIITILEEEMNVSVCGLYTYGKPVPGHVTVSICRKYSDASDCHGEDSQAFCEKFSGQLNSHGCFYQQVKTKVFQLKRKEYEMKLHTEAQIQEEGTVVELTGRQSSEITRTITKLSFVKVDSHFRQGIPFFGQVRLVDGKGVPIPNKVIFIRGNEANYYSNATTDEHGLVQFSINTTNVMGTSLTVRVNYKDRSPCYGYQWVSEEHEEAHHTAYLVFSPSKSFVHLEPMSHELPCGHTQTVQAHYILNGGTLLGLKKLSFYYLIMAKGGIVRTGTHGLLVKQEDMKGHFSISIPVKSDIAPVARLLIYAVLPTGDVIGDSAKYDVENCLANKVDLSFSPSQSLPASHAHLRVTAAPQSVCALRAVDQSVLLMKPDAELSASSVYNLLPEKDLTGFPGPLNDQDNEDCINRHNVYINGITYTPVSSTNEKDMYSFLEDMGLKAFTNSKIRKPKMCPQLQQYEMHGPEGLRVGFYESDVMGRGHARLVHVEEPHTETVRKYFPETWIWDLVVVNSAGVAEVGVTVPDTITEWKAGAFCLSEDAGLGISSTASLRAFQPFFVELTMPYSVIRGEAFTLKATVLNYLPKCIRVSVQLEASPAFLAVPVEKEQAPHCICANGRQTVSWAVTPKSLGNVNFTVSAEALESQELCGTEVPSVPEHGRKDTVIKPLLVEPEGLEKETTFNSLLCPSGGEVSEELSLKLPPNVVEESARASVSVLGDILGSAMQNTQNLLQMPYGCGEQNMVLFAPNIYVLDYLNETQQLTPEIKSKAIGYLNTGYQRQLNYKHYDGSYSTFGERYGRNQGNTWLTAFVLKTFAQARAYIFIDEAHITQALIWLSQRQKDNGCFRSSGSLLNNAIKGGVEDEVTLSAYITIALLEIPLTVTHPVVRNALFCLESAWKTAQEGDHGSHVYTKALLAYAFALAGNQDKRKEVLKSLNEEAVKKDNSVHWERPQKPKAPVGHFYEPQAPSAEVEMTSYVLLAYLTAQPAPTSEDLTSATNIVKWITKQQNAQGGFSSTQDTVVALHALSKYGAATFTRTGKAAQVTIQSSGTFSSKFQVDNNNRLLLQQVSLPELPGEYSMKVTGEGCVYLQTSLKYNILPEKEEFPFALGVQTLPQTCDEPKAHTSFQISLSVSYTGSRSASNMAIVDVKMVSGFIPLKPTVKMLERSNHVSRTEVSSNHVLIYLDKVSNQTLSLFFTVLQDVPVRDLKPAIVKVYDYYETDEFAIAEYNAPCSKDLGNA

The target in data set [4] is T3, C1r CCP1-CCP2-SP S654A, P00736.
T3 chain: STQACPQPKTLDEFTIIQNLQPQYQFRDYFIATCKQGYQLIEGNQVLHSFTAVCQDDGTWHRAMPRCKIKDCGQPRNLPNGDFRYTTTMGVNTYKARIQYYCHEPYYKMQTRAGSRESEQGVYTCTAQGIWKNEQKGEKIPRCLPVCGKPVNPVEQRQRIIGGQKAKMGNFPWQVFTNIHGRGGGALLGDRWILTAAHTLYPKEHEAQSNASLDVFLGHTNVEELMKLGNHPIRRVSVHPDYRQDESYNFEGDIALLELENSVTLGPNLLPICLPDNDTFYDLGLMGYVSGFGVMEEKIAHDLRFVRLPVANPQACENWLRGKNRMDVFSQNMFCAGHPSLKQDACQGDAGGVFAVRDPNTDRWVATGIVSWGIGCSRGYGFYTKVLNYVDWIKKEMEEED

Data set [5] addresses T4, C1r CCP2-SP S654A, P00736.
T4 chain: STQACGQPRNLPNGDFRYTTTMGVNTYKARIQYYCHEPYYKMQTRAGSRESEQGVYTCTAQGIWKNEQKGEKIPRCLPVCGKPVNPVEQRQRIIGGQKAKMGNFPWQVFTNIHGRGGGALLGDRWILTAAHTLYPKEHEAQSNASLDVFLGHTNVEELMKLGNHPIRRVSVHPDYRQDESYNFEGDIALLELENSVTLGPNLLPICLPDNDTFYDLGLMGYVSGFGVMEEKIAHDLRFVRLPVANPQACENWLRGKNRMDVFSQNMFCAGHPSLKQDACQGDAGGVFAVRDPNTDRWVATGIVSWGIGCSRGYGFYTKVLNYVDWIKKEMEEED

Data set [6] concerns the target T5, Proenzyme C1s, P09871.
T5 chain: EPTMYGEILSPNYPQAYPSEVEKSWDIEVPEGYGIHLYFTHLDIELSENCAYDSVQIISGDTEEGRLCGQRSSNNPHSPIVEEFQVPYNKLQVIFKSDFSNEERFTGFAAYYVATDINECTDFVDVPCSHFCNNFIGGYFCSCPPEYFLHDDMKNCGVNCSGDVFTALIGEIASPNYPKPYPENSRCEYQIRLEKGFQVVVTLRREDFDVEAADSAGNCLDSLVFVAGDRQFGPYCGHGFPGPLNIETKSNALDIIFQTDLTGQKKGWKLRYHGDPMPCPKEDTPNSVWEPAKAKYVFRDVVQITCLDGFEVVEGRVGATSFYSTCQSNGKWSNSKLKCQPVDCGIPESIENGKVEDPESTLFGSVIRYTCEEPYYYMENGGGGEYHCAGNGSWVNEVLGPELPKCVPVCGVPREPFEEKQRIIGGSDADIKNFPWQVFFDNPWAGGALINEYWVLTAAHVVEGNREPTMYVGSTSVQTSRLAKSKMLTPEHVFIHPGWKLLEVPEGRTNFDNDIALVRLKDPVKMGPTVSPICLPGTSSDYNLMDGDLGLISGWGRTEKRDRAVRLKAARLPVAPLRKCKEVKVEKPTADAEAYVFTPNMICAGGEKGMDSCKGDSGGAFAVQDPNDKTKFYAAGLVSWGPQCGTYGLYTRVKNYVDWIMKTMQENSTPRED

Data set [7] concerns the target T6, C1r SP S654A, P00736.
T6 chain: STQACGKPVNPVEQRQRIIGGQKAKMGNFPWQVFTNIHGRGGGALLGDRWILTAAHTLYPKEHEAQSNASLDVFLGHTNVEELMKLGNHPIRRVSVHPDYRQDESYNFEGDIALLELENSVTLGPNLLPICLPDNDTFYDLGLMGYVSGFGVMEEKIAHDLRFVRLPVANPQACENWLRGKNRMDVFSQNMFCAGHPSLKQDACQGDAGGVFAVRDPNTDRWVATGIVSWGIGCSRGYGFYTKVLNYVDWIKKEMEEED

Sequence of Human C4, P0C0L4 (P0C0L4 whole entry, looked up): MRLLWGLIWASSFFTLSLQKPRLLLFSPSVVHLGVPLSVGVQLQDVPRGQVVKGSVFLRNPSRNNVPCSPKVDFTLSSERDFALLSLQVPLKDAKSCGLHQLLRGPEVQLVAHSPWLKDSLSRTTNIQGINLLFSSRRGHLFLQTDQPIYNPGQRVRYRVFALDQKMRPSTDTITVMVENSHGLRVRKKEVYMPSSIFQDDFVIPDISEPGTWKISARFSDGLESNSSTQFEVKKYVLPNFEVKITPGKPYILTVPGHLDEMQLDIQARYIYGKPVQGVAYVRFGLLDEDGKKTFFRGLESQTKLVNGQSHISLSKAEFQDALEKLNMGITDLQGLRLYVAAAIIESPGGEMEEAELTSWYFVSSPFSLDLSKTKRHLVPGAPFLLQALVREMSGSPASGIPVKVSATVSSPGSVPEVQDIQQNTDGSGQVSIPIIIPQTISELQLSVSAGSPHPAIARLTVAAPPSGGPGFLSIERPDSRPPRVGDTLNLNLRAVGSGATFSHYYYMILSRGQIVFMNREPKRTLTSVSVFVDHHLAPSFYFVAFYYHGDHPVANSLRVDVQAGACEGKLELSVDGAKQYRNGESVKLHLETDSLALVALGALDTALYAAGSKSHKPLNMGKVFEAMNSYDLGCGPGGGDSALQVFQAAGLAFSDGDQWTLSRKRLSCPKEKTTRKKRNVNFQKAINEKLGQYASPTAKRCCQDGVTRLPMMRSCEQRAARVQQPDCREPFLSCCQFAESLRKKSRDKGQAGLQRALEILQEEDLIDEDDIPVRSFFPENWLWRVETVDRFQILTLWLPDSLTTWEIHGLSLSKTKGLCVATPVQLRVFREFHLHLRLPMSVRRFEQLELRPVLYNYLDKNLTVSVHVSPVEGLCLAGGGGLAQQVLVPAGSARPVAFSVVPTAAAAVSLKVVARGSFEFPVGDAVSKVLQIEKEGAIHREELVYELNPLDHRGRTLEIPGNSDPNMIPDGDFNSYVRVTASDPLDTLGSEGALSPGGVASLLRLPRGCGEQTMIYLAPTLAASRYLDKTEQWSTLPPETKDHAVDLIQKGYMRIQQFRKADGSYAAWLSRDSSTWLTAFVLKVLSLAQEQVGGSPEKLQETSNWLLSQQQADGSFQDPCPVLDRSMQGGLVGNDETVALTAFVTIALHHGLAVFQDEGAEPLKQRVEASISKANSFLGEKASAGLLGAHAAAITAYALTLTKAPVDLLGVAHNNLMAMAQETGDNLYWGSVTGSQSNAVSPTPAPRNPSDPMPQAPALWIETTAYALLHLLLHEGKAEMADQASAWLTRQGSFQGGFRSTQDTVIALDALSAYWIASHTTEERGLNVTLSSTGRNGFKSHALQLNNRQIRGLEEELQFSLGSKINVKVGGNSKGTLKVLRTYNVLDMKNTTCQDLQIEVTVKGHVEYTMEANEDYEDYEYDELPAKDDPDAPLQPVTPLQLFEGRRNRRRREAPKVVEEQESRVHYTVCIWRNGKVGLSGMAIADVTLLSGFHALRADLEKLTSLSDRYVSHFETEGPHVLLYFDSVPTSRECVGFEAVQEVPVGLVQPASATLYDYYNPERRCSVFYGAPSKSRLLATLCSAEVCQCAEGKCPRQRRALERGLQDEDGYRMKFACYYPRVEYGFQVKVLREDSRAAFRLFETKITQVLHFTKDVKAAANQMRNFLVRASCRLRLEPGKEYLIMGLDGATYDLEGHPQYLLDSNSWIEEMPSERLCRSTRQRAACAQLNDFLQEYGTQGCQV

B1: MASP-2 CCP2-SP fragment (protein)
chain 1: ASMTIVDCGPPDDLPSGRVEYITGPGVTTYKAVIQYSCEETFYTMKVNDGKYVCEADGFWTSSKGEKSLPVCEPVCGLSARTTGGR
chain 2: IYGGQKAKPGDFPWQVLILGGTTAAGALLYDNWVLTAAHAVYEQKHDASALDIRMGTLKRLSPHYTQAWSEAVFIHEGYTHDAGFDNDIALIKLNNKVVINSNITPICLPRKEAESFMRTDDIGTASGWGLTQRGFLARNLMYVDIPIVDHQKCTAAYEKPPYPRGSVTANMLCAGLESGGKDSCRGDSGGALVFLDSETERWFVGGIVSWGSMNCGEAGQYGVYTKVINYIPWIENIISDF
Take B1: in data set [1], the KM, C2 cleavage came to 2.7 µM; the kcat, C2 cleavage worked out at 3 s⁻¹; the kcat/KM, C2 cleavage came to 1.3e+06 M⁻¹ s⁻¹. In data set [2], the KM, C4 cleavage came to 0.4 µM; the “fold increase in the kcat/KM value of C4 cleavage against the SP domain alone” value is “a 44-fold increase in the kcat/KM value”; the kcat, C4 cleavage came to 2 s⁻¹; the kcat/KM, C4 cleavage stood at 5.7e+06 M⁻¹ s⁻¹. The “molar excess needed to abolish cleavage of complement substrates” value in data set [3] is on record as “or with a large molar excess (40 fold) of alpha-2-macroglobulin”.

B2: MASP-2 SP fragment (protein)
chain 1: ASMTPVCGLSARTTGGR
chain 2: IYGGQKAKPGDFPWQVLILGGTTAAGALLYDNWVLTAAHAVYEQKHDASALDIRMGTLKRLSPHYTQAWSEAVFIHEGYTHDAGFDNDIALIKLNNKVVINSNITPICLPRKEAESFMRTDDIGTASGWGLTQRGFLARNLMYVDIPIVDHQKCTAAYEKPPYPRGSVTANMLCAGLESGGKDSCRGDSGGALVFLDSETERWFVGGIVSWGSMNCGEAGQYGVYTKVINYIPWIENIISDF
Turning to B2, in data set [1], the KM, C2 cleavage stood at 3.2 µM; the kcat, C2 cleavage was 3.9 s⁻¹; the kcat/KM, C2 cleavage was 2.5e+06 M⁻¹ s⁻¹. Further, in data set [2], the KM, C4 cleavage turned out to be 2 µM; the kcat, C4 cleavage stood at 0.2 s⁻¹; the kcat/KM, C4 cleavage is 130000 M⁻¹ s⁻¹. In data set [3], the “molar excess needed to abolish cleavage of complement substrates” value is “or with a large molar excess (40 fold) of alpha-2-macroglobulin”.

B3: C1r SP fragment (wild-type) (protein)
chain 1: STQACGKPVNPVEQRQR
chain 2: IIGGQKAKMGNFPWQVFTNIHGRGGGALLGDRWILTAAHTLYPKEHEAQSNASLDVFLGHTNVEELMKLGNHPIRRVSVHPDYRQDESYNFEGDIALLELENSVTLGPNLLPICLPDNDTFYDLGLMGYVSGFGVMEEKIAHDLRFVRLPVANPQACENWLRGKNRMDVFSQNMFCAGHPSLKQDACQGDSGGVFAVRDPNTDRWVATGIVSWGIGCSRGYGFYTKVLNYVDWIKKEMEEED
In the case of B3, the kcat/KM, cleavage of S654A zymogen in data set [4] came out at 72000 s^-1M^-1; in data set [5], 75000 s^-1M^-1; in data set [7], 71000 s^-1M^-1. The kcat/KM, C1s cleavage in data set [6] worked out at 28000 s^-1M^-1.

B4: C1r CCP2-SP fragment (wild-type) (protein)
chain 1: STQACGQPRNLPNGDFRYTTTMGVNTYKARIQYYCHEPYYKMQTRAGSRESEQGVYTCTAQGIWKNEQKGEKIPRCLPVCGKPVNPVEQRQR
chain 2: IIGGQKAKMGNFPWQVFTNIHGRGGGALLGDRWILTAAHTLYPKEHEAQSNASLDVFLGHTNVEELMKLGNHPIRRVSVHPDYRQDESYNFEGDIALLELENSVTLGPNLLPICLPDNDTFYDLGLMGYVSGFGVMEEKIAHDLRFVRLPVANPQACENWLRGKNRMDVFSQNMFCAGHPSLKQDACQGDSGGVFAVRDPNTDRWVATGIVSWGIGCSRGYGFYTKVLNYVDWIKKEMEEED
As to B4, the kcat/KM, cleavage of S654A zymogen in data set [4] was 74000 s^-1M^-1; in data set [5], 130000 s^-1M^-1; in data set [7], 68000 s^-1M^-1. The kcat/KM, C1s cleavage in data set [6] came out at 208000 s^-1M^-1.
